The supplement of paper PMC7877785
± gives the uncertainty stated by the source.

Test: self-splicing fitness, log relative to wild type (ln ratio); higher = more splicing; Tetrahymena group I intron in knt gene, E. coli kanamycin selection, DiMSum; sequences stand for … in CUCUCU…GGAGGGAAAAGUUAUCAGGCAUGCACCUGGUAGCUAGUCUUUAAACCAAUAGAUUGCAUCGGUUUAAAAGGCAAGACCGUCAAAUUGCGGGAAAGGGGUCAACAGCCGUUCAGUACCAAGUCUCAGGGGAAACUUUGAGAUGGCCUUGCAAAGGGUAUGGUAAUAAGCUGACGGACAUGGUCCUAACCACGCAGCCAAGUCCUAAGUCAACAGAUCUUCUGUUGAUAUGGAUGCAGUUCACAGACUAAAUGUCGGUCGGGGAAGAUGUAUUCUUCUCAUAAGAUAUAGUCGGACCUCUCCUUAAUGGGAGCUAGCGGAUGAAGUGAUGCAACACUGGAGCCGCUGGGAACUAAUUUGUAUGCGAAAGUAUAUUGAUUAGUUUUGGAGUACUCGUGGUCG
In short: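 DiMSum derived fitness as the error-weighted combination of fold changes across replicates, kanamycin versus no kanamycin, normalised to wild type. E. coli BL21(DE3) held the library, which randomised all eight P1ex-region intron nucleotides within the knt kanamycin-resistance gene on pET-22b(+). Six replicate transformations grew overnight at 37°C or 30°C on LB agar with or without 25 μg/mL kanamycin, also containing 100 μg/mL carbenicillin, 50 μM IPTG and 0.2% rhamnose, and pooled colonies were amplicon-sequenced on an Illumina HiSeq 2500.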

| Sequence | self-splicing fitness (ln) (30 °C) | self-splicing fitness (ln) (37 °C) |
| --- | --- | --- |
| CUCUAGCAAUAUUACGAUUG | -1.48 ± 0.091 | -1.24 ± 0.12 |
| CUCUAGCAAUAUUACGCCCU | -3.28 ± 0.26 | -2.2 ± 0.19 |
| CUCUAGCAAUAUUACGCUUU | -3.13 ± 0.28 | -2.08 ± 0.22 |
| CUCUAGCAAUAUUACGGCGG | -3.5 ± 0.15 | -3.12 ± 0.23 |
| CUCUAGCAAUAUUACGGGGA | -1.69 ± 0.17 | -1.62 ± 0.14 |
| CUCUAGCAAUAUUACGUCAA | -4.19 ± 0.29 | -3.45 ± 0.25 |
| CUCUAGCAAUAUUACGUCAU | -2.83 ± 0.4 | -4.18 ± 0.39 |
| CUCUAGCAAUAUUACGUCCC | -2.69 ± 0.27 | -3.71 ± 0.39 |
| CUCUAGCAAUAUUACGUCUU | -2.57 ± 0.12 | -3.16 ± 0.16 |
| CUCUAGCAAUAUUACGUUGA | -2.49 ± 0.27 | -3.81 ± 0.36 |
| CUGAAGCAAUAUUACGAAAG | -0.525 ± 0.12 | -0.0848 ± 0.16 |
| CUGAAGCAAUAUUACGACGU | -2.75 ± 0.12 | -1.09 ± 0.1 |
| CUGAAGCAAUAUUACGAGCG | 0.242 ± 0.072 | 0.0253 ± 0.1 |
| CUGAAGCAAUAUUACGAGUC | -3.88 ± 0.19 | -2.16 ± 0.21 |
| CUGAAGCAAUAUUACGAUAA | -2.51 ± 0.25 | -2.06 ± 0.29 |
| CUGAAGCAAUAUUACGCACU | -4.4 ± 0.39 | -1.32 ± 0.18 |
| CUGAAGCAAUAUUACGCAGC | -3.2 ± 0.4 | -1.77 ± 0.45 |
| CUGAAGCAAUAUUACGCAGU | -3.09 ± 0.19 | -3.23 ± 0.43 |
| CUGAAGCAAUAUUACGCCGG | -1.86 ± 0.25 | -1.19 ± 0.25 |
| CUGAAGCAAUAUUACGCGGU | -1.86 ± 0.08 | -0.746 ± 0.081 |
| CUGAAGCAAUAUUACGCUAG | -1.1 ± 0.096 | -0.802 ± 0.099 |

| Sequence | self-splicing fitness (ln) (30 °C) | self-splicing fitness (ln) (37 °C) |
| --- | --- | --- |
| CUGAAGCAAUAUUACGGCCU | -4.04 ± 0.26 | -2.43 ± 0.33 |
| CUGAAGCAAUAUUACGGCGA | -3.53 ± 0.27 |  |
| CUGAAGCAAUAUUACGGCGU | -3.6 ± 0.41 | -2.98 ± 0.47 |
| CUGAAGCAAUAUUACGGCUG | -0.126 ± 0.074 | 0.668 ± 0.11 |
| CUGAAGCAAUAUUACGGGGG | -1.46 ± 0.14 | -1.28 ± 0.18 |
| CUGAAGCAAUAUUACGGGUU | -3.71 ± 0.21 | -2.77 ± 0.22 |
| CUGAAGCAAUAUUACGGUUG | -0.0856 ± 0.068 | 0.139 ± 0.096 |
| CUGAAGCAAUAUUACGUAAU | -2.87 ± 0.24 | -2.17 ± 0.5 |
| CUGAAGCAAUAUUACGUAGG | -3.21 ± 0.18 | -2.36 ± 0.25 |
| CUGAAGCAAUAUUACGUCCU | -3.45 ± 0.23 | -2.39 ± 0.23 |
| CUGAAGCAAUAUUACGUGAC | -1.24 ± 0.086 | -0.353 ± 0.1 |
| CUGAAGCAAUAUUACGUUGU | -4.42 ± 0.13 | -2.28 ± 0.14 |
| CUGCAGCAAUAUUACGACUA | -1.58 ± 0.13 | -1.09 ± 0.12 |
| CUGCAGCAAUAUUACGAGAC | -2.19 ± 0.16 | -1.31 ± 0.16 |
| CUGCAGCAAUAUUACGAGUC | -3.68 ± 0.23 | -2.59 ± 0.41 |
| CUGCAGCAAUAUUACGAGUG | -0.52 ± 0.053 | 0.112 ± 0.087 |
| CUGCAGCAAUAUUACGAGUU | -3.55 ± 0.21 | -2.83 ± 0.28 |
| CUGCAGCAAUAUUACGAUUU | -4.06 ± 0.17 | -1.7 ± 0.14 |
| CUGCAGCAAUAUUACGCACA | -2.82 ± 0.19 | -1.48 ± 0.19 |
| CUGCAGCAAUAUUACGCGAC | -2.19 ± 0.14 | -0.91 ± 0.12 |
| CUGCAGCAAUAUUACGCGAG | -3.67 ± 0.17 | -1.98 ± 0.15 |
